Results: the supplement of paper PMC9942255
Where “and” joins values, the source holds several entries; their conditions need not be identical. Equal values may be shown once.

Test system: Bacillus subtilis DB104 (SP-AmyQ fusion secretion)
Test: AmyQ secretion efficiency, weighted average sort bin (1 = best secretion, 10 = worst) (bin number (weighted average, 1-10)); higher = lower secretion efficiency
Summary of the method: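 A B. subtilis DB104 library carrying amyE-integrated fusions of designed signal peptides to mature AmyQ was encapsulated at about 0.3 cells per ~65 nL alginate bead with fluorescein-starch and grown about 13 h at room temperature. Following nile red staining, occupied beads were flow-sorted as large particles into 10 equally populated bins by green/red fluorescence ratio, and the bin amplicons were Illumina-sequenced. The secretion score is the read-frequency-weighted average bin number normalised to beads per bin, leaving out low-abundance sequences.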

| Sequence | AmyQ secretion efficiency |
| --- | --- |
| MKSKGSIMACLILFSFTITEDEEEETISAFSN | 6.65 |
| MNKFLKSNFRFLLAAALGISLLKRSNFIKASND | 6.59 |
| MRSYIKVLTMCFLGLILFVPTCLADNS | 2.04 |
| MMSSISIFITCLLITLLTMGGMIASPASAAGT | 2.44 |
| MRPVFPLILSAVLFLSCFFGARQTEISASKR | 2.64 |
| MKRRRQRQTTLPLLIVCLAFSSFSASARAASE | 3.83 |
| MKFVKRRIRRKRTILMLSVTSLFALQPSAKAAEH | 3.06 |
| MKRLFMKASLVLFAVVFVFAVKGAGAKAETH | 1.83 |
| MKRLFMKASLVLFAVVFVFAVKGADAKAETH | 2.52 |
| MNIKKFAKQATVLTFTTALLAGGATQAFAATE | 1.07 |
| MKKLLAAGIIGLLTVTSIASPSFAAEK | 2.48 |
| MKKRLIAPMLLSAASLAFFAMSGSKQAAAY | 3.82 |
| MKKIVSILFMFGLVMGFSQFQPSTVFAADK | 3.41 and 2.54 |
| MKKRLIGFLVLVPALIMSGITLGEANKK | 6.8 |
| MKKRLIAPMLLSAASLAFFAMSGSSQAAAY | 4.08 |
| MKRMIVRMTTPLLIVCLAFSSFSASARAASE | 2.03 |
| MKSKWMSGLLLVAVGFSFTQVMGGFFAVHAGET | 7.03 |
| MKKQIITATTAVVLGSTLFAGAASAKRK | 2.25 |
| MPYLKRVLLLLVTGLFMSLFAVTATYSAQTG | 3.91 |
| MNKPTKLFSTLALAAGMTDEEEEEAGTIHAQQP | 7.16 |
| MQRRQRYRQRVIVIAALITFNVRNASPG | 8.93 |

| Sequence | AmyQ secretion efficiency |
| --- | --- |
| MFSKWMSGLLLVAVGFSFTQVMVHAGET | 6.12 |
| MKVPKTMLLSTAAGLLLSLDPTSVSAHYV | 3.57 |
| MGLGTTFLSVAVAASFMSLSISLPGVQAAEG | 2.45 |
| MKLKSKLRKKCRRRSTVFVATTIANAPTH | 7.48 |
| MRRYRKVLTMCFLGLILFVPTALADNS | 1.79 |
| MKKWIYVVLVLSIAGIGGFSVHGASS | 7.27 |
| MKKMLGKLLITAGILVFFAVVVKDVFSAGL | 3.11 |
| MFKFKKNFRRRRRRALMSISLFSATASAAST | 6.72 |
| MKKWIYVVLVLSIAGIGGFSLHAASS | 6.87 |
| MSMMLRRNFKRFIAAFLVLALMISLVPADVLAKST | 1.81 |
| MNLRKILLSSALSLGMLVSAAPVLDTSS | 6.16 |
| MKRLLVSLRVWMVFLMNWVTPDRKTAAAAKK | 7.3 |
| MRKNRILALFVLSLGLLRRKVTPVSAASK | 7.91 |
| MRNLTKTSLLLAGLCTAAQMVFVTHASAADE | 2.81 |
| MRKKRVITCVMAASLTLGSLLTAVTASAKED | 3.16 |
| MKLKKRVSMFLVALTMCGGLFVTPAKAVTD | 3.07 |
| MNLRKIKKSSALSLGMLVSAAPVLATSS | 5.42 |
| MKNMSCKLVVSVTLFFSFLTIGPLAHADDE | 3.5 |
| MKSKWMSGLLLVAVGFSFTQVMVHAGET | 6.97 and 4.43 and 7.09 |
| MGLGKKLSVAVAASFMSLSISLPGVQGAEG | 1.9 |
| MGFVSSSIIALVTILMLSVTSLFALQPSAKAAEH | 2.48 |

| Sequence | AmyQ secretion efficiency |
| --- | --- |
| MRKTIFAFLTGLMMFFGTITAASASPD | 1.98 |
| MKKSQYFIVFICFFVLFSVHPIAAAAASS | 2.35 |
| MRKYTVIASILLSFLSVLSGGHHESKAFPV | 3.25 and 4.96 |
| MKLAKRVSALTPSTTLAITAKGKEL | 7.3 |
| MGLGKKLSVAVAASFMSLSISLPGVQFAEG | 4.64 |
| MKKAKRVFLSVVLVTTVFLVKQQESVAQAKQL | 3.28 |
| MKKCLLFLTTIALILSLSTNAFAEDE | 4.16 |
| MLTKRLLLTIYIMLLGLIAWFPGAAQAEEK | 2.22 |
| MKLSVKIAGVLTVAAAAMTAKMYATAAGN | 6.91 |
| MKIRKILLMMALFFMMLISAVPALAAGT | 2.45 |
| MKRTWNVCLTALLSVLLVAGSVGFVAEAKKP | 3.4 |
| MLCKRRKRKSAIASFPVSAQAKDQ | 6.78 |
| MKKRRAIIIAIIAAVIVIAALITFNVRNASPG | 5.35 |
| MRKILALFVLSLGLLSFMVTPVSAASK | 1.58 |
| MRSYIKVLTMCFLGLILFVPTALAAEE | 3.07 |
| MKRFSTAYLLLGILCSAAVFLIGAPSRALNAEV | 5.97 |
| MMKLLAAGIIGLLTVSIASPSFAAEK | 2.05 |
| MGMKKKLSLGVASAALGLALVGKKRTWAAFN | 8.1 |
| MSSYIKVLTMCFLGLILFVPTALADNS | 1.7 |
| MKSCKQLIVCSLAAILLLIPSVSFAAPD | 2.43 |
| MTMLRKIIGWILLLCPLFAFTVIASGKEV | 8.01 |
